Laboratory results: article PMC6803030 (Inorganic chemistry, 2019)
Like-named read-outs stand apart in the source and are kept apart here.

Columns and labels:
Experiment in all cases: SEC
mS100A9(H105A) = target: T1, mS100A9(H105A) (murine, UniProt P31725 2-113, H105A)
T1 sequence (looked up): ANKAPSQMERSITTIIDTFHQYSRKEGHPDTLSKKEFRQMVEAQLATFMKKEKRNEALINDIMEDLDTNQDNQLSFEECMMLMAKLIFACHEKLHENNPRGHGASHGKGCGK

mS100A9(H107A) = target: T2, mS100A9(H107A) (murine, UniProt P31725 2-113, H107A)
T2 sequence (looked up): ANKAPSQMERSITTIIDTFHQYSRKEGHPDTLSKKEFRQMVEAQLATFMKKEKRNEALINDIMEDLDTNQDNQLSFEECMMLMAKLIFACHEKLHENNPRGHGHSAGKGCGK

mS100A9(H105A)(H107A) = target: T3, mS100A9(H105A)(H107A) (murine, UniProt P31725 2-113, H105A | H107A)
T3 sequence (looked up): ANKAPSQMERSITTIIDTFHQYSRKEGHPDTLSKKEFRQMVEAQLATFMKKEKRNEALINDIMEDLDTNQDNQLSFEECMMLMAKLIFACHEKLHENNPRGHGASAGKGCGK

[1] = target: T4, mS100A9 (murine S100A9 subunit of calprotectin) (murine, UniProt P31725 1-113)
T4 sequence (looked up): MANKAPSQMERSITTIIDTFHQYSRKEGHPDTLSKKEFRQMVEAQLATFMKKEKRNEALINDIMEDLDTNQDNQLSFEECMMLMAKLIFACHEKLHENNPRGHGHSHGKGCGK

mS100A9(H103A) = target: T5, mS100A9(H103A) (murine, UniProt P31725 2-113, H103A)
T5 sequence (looked up): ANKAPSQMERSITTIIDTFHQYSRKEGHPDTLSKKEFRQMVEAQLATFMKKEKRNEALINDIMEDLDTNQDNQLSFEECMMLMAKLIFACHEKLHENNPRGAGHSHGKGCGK

mS100A9(H103A)(H105A) = target: T6, mS100A9(H103A)(H105A) (murine, UniProt P31725 2-113, H103A | H105A)
T6 sequence (looked up): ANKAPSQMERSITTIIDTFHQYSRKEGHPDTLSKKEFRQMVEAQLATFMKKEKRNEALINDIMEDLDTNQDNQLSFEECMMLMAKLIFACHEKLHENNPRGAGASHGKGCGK

mS100A9(H103A)(H107A) = target: T7, mS100A9(H103A)(H107A) (murine, UniProt P31725 2-113, H103A | H107A)
T7 sequence (looked up): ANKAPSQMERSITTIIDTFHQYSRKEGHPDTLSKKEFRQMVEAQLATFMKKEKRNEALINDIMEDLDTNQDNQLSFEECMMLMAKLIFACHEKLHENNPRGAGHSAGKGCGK

SEC [2] = target: the molecule itself
SEC [3] = target: the molecule itself; remark: listed apart in the source

B1: mS100A8 (murine S100A8 subunit of calprotectin) (natural protein, UniProt P27005 1-89, looked up)
chain: MPSELEKALSNLIDVYHNYSNIQGNHHALYKNDFKKMVTTECPQFVQNINIENLFRELDINSDNAINFEEFLAMVIKVGVASHKDSHKE
mS100A9(H105A)
  binding result: binds
mS100A9(H107A)
  binding result: binds
mS100A9(H105A)(H107A)
  binding result: binds
[1]
  binding result: binds
mS100A9(H103A)
  binding result: binds
mS100A9(H103A)(H105A)
  binding result: binds
mS100A9(H103A)(H107A)
  binding result: binds

B2: mCP(H103A)(H105A), mS100A8/mS100A9(H103A)(H105A) (complex, murine)
chain 1: MPSELEKALSNLIDVYHNYSNIQGNHHALYKNDFKKMVTTECPQFVQNINIENLFRELDINSDNAINFEEFLAMVIKVGVASHKDSHKE
chain 2: ANKAPSQMERSITTIIDTFHQYSRKEGHPDTLSKKEFRQMVEAQLATFMKKEKRNEALINDIMEDLDTNQDNQLSFEECMMLMAKLIFACHEKLHENNPRGAGASHGKGCGK
SEC [2]
  binding result: binds

B3: mCP(H103A), mS100A8/mS100A9(H103A) (complex, murine)
chain 1: MPSELEKALSNLIDVYHNYSNIQGNHHALYKNDFKKMVTTECPQFVQNINIENLFRELDINSDNAINFEEFLAMVIKVGVASHKDSHKE
chain 2: ANKAPSQMERSITTIIDTFHQYSRKEGHPDTLSKKEFRQMVEAQLATFMKKEKRNEALINDIMEDLDTNQDNQLSFEECMMLMAKLIFACHEKLHENNPRGAGHSHGKGCGK
SEC [2]
  binding result: binds

B4: mCP(H105A)(H107A), mS100A8/mS100A9(H105A)(H107A) (complex, murine)
chain 1: MPSELEKALSNLIDVYHNYSNIQGNHHALYKNDFKKMVTTECPQFVQNINIENLFRELDINSDNAINFEEFLAMVIKVGVASHKDSHKE
chain 2: ANKAPSQMERSITTIIDTFHQYSRKEGHPDTLSKKEFRQMVEAQLATFMKKEKRNEALINDIMEDLDTNQDNQLSFEECMMLMAKLIFACHEKLHENNPRGHGASAGKGCGK
SEC [2]
  binding result: binds

B5: mCP(H103A)(H107A), mS100A8/mS100A9(H103A)(H107A) (complex, murine)
chain 1: MPSELEKALSNLIDVYHNYSNIQGNHHALYKNDFKKMVTTECPQFVQNINIENLFRELDINSDNAINFEEFLAMVIKVGVASHKDSHKE
chain 2: ANKAPSQMERSITTIIDTFHQYSRKEGHPDTLSKKEFRQMVEAQLATFMKKEKRNEALINDIMEDLDTNQDNQLSFEECMMLMAKLIFACHEKLHENNPRGAGHSAGKGCGK
SEC [2]
  binding result: binds

B6: mCP ∆His3Asp variant, mS100A8(H83A)(H87A)/mS100A9(H21A)(D31A) (complex, murine)
chain 1: MPSELEKALSNLIDVYHNYSNIQGNHHALYKNDFKKMVTTECPQFVQNINIENLFRELDINSDNAINFEEFLAMVIKVGVASAKDSAKE
chain 2: ANKAPSQMERSITTIIDTFAQYSRKEGHPATLSKKEFRQMVEAQLATFMKKEKRNEALINDIMEDLDTNQDNQLSFEECMMLMAKLIFACHEKLHENNPRGHGHSHGKGCGK
SEC [2]
  binding result: binds

B7: mCP(H105A), mS100A8/mS100A9(H105A) (complex, murine)
chain 1: MPSELEKALSNLIDVYHNYSNIQGNHHALYKNDFKKMVTTECPQFVQNINIENLFRELDINSDNAINFEEFLAMVIKVGVASHKDSHKE
chain 2: ANKAPSQMERSITTIIDTFHQYSRKEGHPDTLSKKEFRQMVEAQLATFMKKEKRNEALINDIMEDLDTNQDNQLSFEECMMLMAKLIFACHEKLHENNPRGHGASHGKGCGK
SEC [2]
  binding result: binds

B8: murine calprotectin (mS100A8/mS100A9 heterodimer) (complex)
chain 1: MPSELEKALSNLIDVYHNYSNIQGNHHALYKNDFKKMVTTECPQFVQNINIENLFRELDINSDNAINFEEFLAMVIKVGVASHKDSHKE
chain 2: MANKAPSQMERSITTIIDTFHQYSRKEGHPDTLSKKEFRQMVEAQLATFMKKEKRNEALINDIMEDLDTNQDNQLSFEECMMLMAKLIFACHEKLHENNPRGHGHSHGKGCGK
SEC [3]
  binding result: binds

B9: mCP(H107A), mS100A8/mS100A9(H107A) (complex, murine)
chain 1: MPSELEKALSNLIDVYHNYSNIQGNHHALYKNDFKKMVTTECPQFVQNINIENLFRELDINSDNAINFEEFLAMVIKVGVASHKDSHKE
chain 2: ANKAPSQMERSITTIIDTFHQYSRKEGHPDTLSKKEFRQMVEAQLATFMKKEKRNEALINDIMEDLDTNQDNQLSFEECMMLMAKLIFACHEKLHENNPRGHGHSAGKGCGK
SEC [2]
  binding result: binds
